This note sets out measurements from patent publication US9097721B2, “Compositions comprising engineered phosphothreonine affinity reagents, methods of making, and methods of use” (The Board of Trustees of the University of Illinois, priority 2012, dated 2015).

In series [1] the target is T1, pT peptide (Rad 9-pT: SLEVpTEADATFYAKK) (Saccharomyces cerevisiae, UniProt P14737).
T1 construct: host or cells: chemical synthesis
Kind of series: Isothermal titration calorimetry (ITC). Particulars: in solution by ITC; FHA1 domain 35 μM in cell; listed as WT FHA1 domain. In kind it is binding, yeast. As to the method:
A fixed amount (10 μL) of the pT peptide (Rad 9-pT: SLEVpTEADATFYAKK (SEQ ID NO:9); 500 μM) was injected from the syringe into the sample cell containing the FHA1 domain (35 μM). […] Each measurement was repeated three times.
The affinity of the G2 variant and the WT FHA1 domain to the pT peptide (SLEVpTEADATFYAKK) (SEQ ID NO:9) was determined by ITC (FIG. 12). The sample cell contained the purified FHA1 domains (35 μM) and the injection syringe was filled with the pT peptide (350 μM). […] The FHA1 domains bound to the pT peptide with a stoichiometry of 1:1, and the ITC graph was fitted by the single site binding model.
For orientation: ITC needs no label: the signal is the heat of the interaction.

The next series deals with T2, Rad9-pT peptide (Saccharomyces cerevisiae, UniProt P14737).
T2 construct: host or cells: chemical synthesis
Briefly: ELISA of GST fusions of FHA1 domains. It counts as binding, yeast. Particulars: expressed in bacterial cytoplasm as GST fusion; listed as WT FHA1 domain. As for the experimental part:
For production of FHA1-GST fusion protein, BL21 DE3 cells (10 mL; Stratagene) harboring the expression vector was grown overnight at 30° C. using the Overnight Express™ Autoinduction System 1 (Novagen). The next day, cells were lysed using BugBuster® 10× Protein Extraction Reagent (Novagen) following the manufacturer's instructions. Cell lysate (100 μL diluted 1:5 with PBST) was incubated with the biotinylated peptides as described above and detected using anti-GST antibody conjugated to HRP (diluted 1:10,000 with PBST; GE Healthcare).
In general terms: ELISA stands for enzyme-linked immunosorbent assay.

A short description of series [2]: Fluorescence-based thermal shift (FTS) assay, melting temperature. In kind it is physicochemical. Particulars: mid-point of melting curve. As to the method:
The FTS assay was performed on a MxPro-Mx3005P instrument (Stratagene) following the protocol described by Giuliani et al (Giuliani et al. (2008) Biochemistry 47, 13974-84). It is a real-time assay using the SYBR® Green experiment setting with dissociation curve. The default FRROX filter set was used with an excitation wavelength of 492 nm and emission wavelength of 610 nm. FHA1 domains diluted with PBS to 2× final concentration (i.e. 2 μM and 8 μM) were mixed with 10×SYPRO® Orange protein gel stain (Invitrogen; 5000× concentration in DMSO) to give a final dye concentration of 10×. Then, to the protein wells only, 10 μL of the dye+protein mixture was added along with 10 μL of 1×PBS buffer. In other wells, 10 μL of either the pT peptide or its non-phosphorylated form (diluted to 2× final concentration with PBS, i.e. 100 μM and 500 μM) was added to 10 μL of dye+protein mixture. The final reaction volume was 20 μL with final concentrations of 1 μM or 4 μM of FHA1 domains, 50 μM or 250 μM of pT and non-phosphorylated peptides and 5× final concentration of the SYPRO® Orange. The assay was performed in duplicate in 96 well white PCR plates (BIO-Rad) covered with optically clear Microseal® ‘B’ Film (Bio-Rad) and heated from 25° C. to 95° C. and the melting curve was obtained with fluorescence (R) values plotted on the Y-axis and increasing temperature (° C.) on the X-axis. The mid-point of the curve gives the melting temperature (Tm), which shifts to a higher temperature in the presence of the pT peptide.
To evaluate the thermal stability of the D2 variant, phage particles displaying the D2 variant were heated at various temperatures (30° C., 37° C., 50° C., 60° C., 70° C., 80° C., and 95° C.) prior to incubation with the cognate pT peptide (Rad9-pT) and the non-phosphorylated form of the same peptide (Rad9-T). […] (FIG. 8). The D2 variant (purified six-his tagged protein) was mixed with SYPRO orange dye with or without the Rad9-pT-containing peptide and heated from 25° C. to 95° C. in a real-time PCR experiment known as the Fluorescence-based thermal shift (FTS) assay^36. In this assay, initially, the fluorescence of SYPRO orange dye is quenched in the aqueous environment of a folded protein, but as the protein starts to unfold upon heating, the dye interacts with the hydrophobic core of the protein and its fluorescence increases. Therefore, an increase in fluorescence of the dye is directly proportional to protein unfolding, until a temperature (referred to as Tm here) is reached at which the dye fluorescence decreases due to aggregation and precipitation of the protein. The melting temperature (Tm) of the D2 variant was determined by fluorescence-based thermal shift (FTS) assay to be approximately 5° C. lower than the Tm of the WT FHA1 domain. To improve the thermal stability of the D2 variant, affinity selection was carried out by heating the phage library displaying D2 variants at 50° C. prior to incubation with the pT peptide ligand to favor the isolation of variants that remained folded and functional above 50° C.
The Tm values of FHA1 variants were determined by FTS assay (Giuliani et al. (2008) Biochemistry 47, 13974-84). A representative Tm curve for the G2 variant at 1 μM concentration is shown (solid squares), alone and in the presence of the pT peptide (FIG. 11). […] The Tm values of the thermally stable variants (along with WT and D2 variant) at 1 μM and 4 μM concentration, along with the Tm shift in the presence of two different concentrations (50 μM and 250 μM) of the pT peptide, are listed in Table S3.
The Tm (temperature at which 50% of the protein is unfolded) of the protein domain variants was determined by a fluorescence-based thermal shift assay (Giuliani et al. (2008) Biochemistry 47, 13974-84). The proteins were mixed with SYPRO orange dye, and heated from 25° C. to 95° C. on a real-time thermocycler. […]

A word on the Kd: it is the free concentration of one partner at which half of the binding sites on the other are occupied at equilibrium, for simple one-to-one binding. Low readings indicate tighter binding, high ones weaker binding.

“And” between values parts separate entries of the source, which are not always exact repeats. Equal entries are not always repeated. “Also recorded” adds a separate entry of the source.

B1: WT: N-terminal FHA1 domain of S. cerevisiae Rad53 protein kinase, residues 1-170 (SEQ ID NO:7) (protein, listed as Saccharomyces cerevisiae)
chain: MENITQPTQQSTQATQRFLIEKFSQEQIGENIVCRVICTTGQIPIRDLSADISQVLKEKRSIKKVWTFGRNPACDYHLGNISRLSNKHFQILLGEDGNLLLNDISTNGTWLNGQKVEKNSNQLLSQGDEITVGVGVESDILSLVIFINDKFKQCLEQNKVDRIRSNLKNT
Consider B1, for which, in series [1], the Kd is ~1000 nM and 1000 nM. Moreover, the “binding of GST fusion to Rad9-pT peptide” value with Rad9-pT peptide is recorded as “bound specifically; also recorded: showed specific binding”. Moreover, the “Tm (° C.)” value in series [2] (protein concentration 1 μM) was 66.7 °C; in series [2] (protein concentration 4 μM) it was 66.4 °C.
